B1: S2X259 variant antibody, VH SEQ ID NO 408 / VL SEQ ID NO 444 (antibody, V domains shown)
VH: QVQLVQSGAEVKKPGSSVKVSCKASGGIFNTYTISWVRQAPGQGLEWMGRIILMSGMANYAQKIQGRVTITADKSTSTAYMELTSLRSDDTAVYYCARGFNGNYYGWGDDDAFDISGQGTLVTVYS
VL: QTVLTQPPSVSGAPGQRVTISCTGSNSNIGAGYDVHWYQQLPGTAPKLLIYGNSNRPSGVPDRFSGSKSGTSASLAITGLQAEDEADYYCQSYDSSLSGPNWVFGGGTKLTVL
B2: S2X259 variant antibody, VH SEQ ID NO 408 / VL SEQ ID NO 443 (antibody, V domains shown)
VH: B1 VH
VL: B1 VL with Y51A
B3: S2X259 variant antibody, VH SEQ ID NO 408 / VL SEQ ID NO 445 (antibody, V domains shown)
VH: B1 VH
VL: B1 VL with Y51V
B4: S2X259 variant antibody, VH SEQ ID NO 448 / VL SEQ ID NO 412 (antibody, V domains shown)
VH: B1 VH with N30S
VL: B1 VL with Y51C
B5: S2X259 variant antibody, VH SEQ ID NO 408 / VL SEQ ID NO 442 (antibody, V domains shown)
VH: B1 VH
VL: B1 VL with Y51S
B6: S2X259 variant antibody, VH SEQ ID NO 446 / VL SEQ ID NO 412 (antibody, V domains shown)
VH: B1 VH with M54I, M57I
VL: B1 VL with Y51C
B7: S2X259 variant antibody, VH SEQ ID NO 460 / VL SEQ ID NO 445 (antibody, V domains shown)
VH: B1 VH with M54I, M57I, S116W, Y125S
VL: B1 VL with Y51V
B8: S2X259 variant antibody, VH SEQ ID NO 459 / VL SEQ ID NO 445 (antibody, V domains shown)
VH: B1 VH with M57K, S116W, Y125S
VL: B1 VL with Y51V
B9: S2X259 variant antibody, VH SEQ ID NO 458 / VL SEQ ID NO 445 (antibody, V domains shown)
VH: B1 VH with S116W, Y125S
VL: B1 VL with Y51V
B10: 407_10_1_v2 (antibody, V domains shown)
VH: B1 VH with S116W
VL: B1 VL with Y51C

Substitutions are numbered along the chain they refer to. Several values for one entry are separate records, joined by “and”; a condition that tells them apart may be missing. Equal values may be shown once.

From patent publication US20240059757A1 (VIR BIOTECHNOLOGY, published 2024) come the findings set out here.

One assay addresses T1, SARS-CoV-2 RBD (residues 331-550 of spike from BetaCoV/Wuhan-Hu-1/2019, accession number MN908947) (SARS-CoV-2 Wuhan-Hu-1, UniProt P0DTC2 331-550). Description: BLI.
Regarding B1, binding was characterised by a dissociation constant (Kd) of 0.0642 nM.

As for B2, binding was characterised by a dissociation constant (Kd) of 0.0828 nM.

Turning to B3, the dissociation constant Kd (in general, the free concentration of one partner at which half of the binding sites on the other are occupied at equilibrium, for simple one-to-one binding) was determined as 0.0764 nM.

Regarding B4, the dissociation constant (Kd) was determined as 0.584 nM.

As to B5, the Kd stood at 0.0605 nM.

The molecule B6 gave a Kd of 0.572 nM.

For the next assay, the target named is T1, SARS-CoV-2 RBD (residues 331-550 of …). Description: BLI. This is another data set of the same source. In general terms: BLI is a label-free optical method that tracks binding on a fibre tip over time.
Take B7: the affinity, expressed as Kd, was 0.298 nM; the koff – broadly, the rate constant with which the complex falls apart – amounted to 0.000177 s⁻¹; the kon (as a rule, the rate constant with which the complex forms) is 595000 M⁻¹ s⁻¹.

B8 displayed a Kd of 0.108 nM, an off-rate constant (koff) of 6.46e-05 s⁻¹ and a kon of 601000 M⁻¹ s⁻¹.

Take B9: the affinity, expressed as Kd, was 0.0836 nM; the koff turned out to be 5.03e-05 s⁻¹; the kon worked out at 601000 M⁻¹ s⁻¹.

In turn, B3 had a dissociation constant (Kd) of 0.0314 nM, a dissociation rate constant (koff) of 2.08e-05 s⁻¹ and a kon of 661000 M⁻¹ s⁻¹.

For the next assay the target is unchanged. Description: ELISA.
For B7, the IC50 (commonly the concentration at which inhibition is half-maximal) is ≥ 0.05 µg/mL and ≤ 0.1 µg/mL.

Take B8: the concentration for half-maximal inhibition (IC50) is ≥ 0.05 µg/mL and ≤ 0.1 µg/mL.

With B9, the IC50 was ≥ 0.05 µg/mL and ≤ 0.1 µg/mL.

In the next assay the target is SARS-CoV-2 mutant RBD N439K (SARS-CoV-2, UniProt P0DTC2 328-531). Description: ELISA.
In the case of B8, the concentration for half-maximal inhibition (IC50) is ≥ 0.05 µg/mL and ≤ 0.1 µg/mL.

With B9, the IC50 is ≥ 0.05 µg/mL and ≤ 0.1 µg/mL.

The next assay concerns the target T1, SARS-CoV-2 RBD (residues 331-550 of …).
Test: not given
In the case of B10, the 50% effective concentration (EC50 (read off the curve)) (as a rule, the concentration giving half of the maximal effect) was ~5 µg/mL.

In another assay the target is T2, SARS-CoV-2 Spike protein (SARS-CoV-2 Wuhan-Hu-1, UniProt P0DTC2 14-1273). Description: cell-based or functional assay.
Take B2: the “neutralization IC50” value is < 0.1 µg/mL.

With B3, the “neutralization IC50” value was < 0.1 µg/mL.

A further assay concerns the target T2, SARS-CoV-2 Spike protein. Description: cell-based or functional assay. The source holds these as a separate data set.
For B1, the “neutralization IC50” value was 0.167 µg/mL.

On to B2, for which the “neutralization IC50” value stood at 0.0975 µg/mL.

Regarding B3, the “neutralization IC50” value amounted to 0.19 µg/mL.

Consider B4, for which the “neutralization IC50” value came to 0.0134 µg/mL.

For B5, the “neutralization IC50” value stood at 0.19 µg/mL.

Regarding B6, the “neutralization IC50” value worked out at 0.321 µg/mL.
